In the Human Domainome abundance scans (Beltran et al. 2025):
± gives the uncertainty stated by the source.

B1: Cold shock protein CspB, residues 1 to 66; numbered along this chain, P41016 (parent)
chain: MQRGKVKWFNNEKGYGFIEVEGGSDVFVHFTAIQGEGFKTLEEGQEVSFEIVQGNRGPQAANVVKL

Variants of: B1
Experiment: abundance fitness (aPCA) (normalised: wild type 0, dead -1); higher = more abundant; growth selection in yeast, the domain comes from the species named
Settings: Bacillus caldolyticus

Variant | abundance fitness
G44P | -0.311 ± 0.051
G44R | -0.013 ± 0.034
G44S | -0.029 ± 0.042
G44T | -0.093 ± 0.052
G44V | -0.344 ± 0.031
G44W | -0.111 ± 0.033
G44Y | -0.066 ± 0.066
Q45A | 0.021 ± 0.042
Q45C | -0.031 ± 0.07
Q45D | -0.104 ± 0.085
Q45E | -0.003 ± 0.047
Q45F | -0.097 ± 0.082
Q45G | 0.032 ± 0.042
Q45H | -0.036 ± 0.077
Q45I | -0.09 ± 0.075
Q45L | -0.021 ± 0.03
Q45M | -0.032 ± 0.057
Q45N | -0.005 ± 0.082
Q45P | -0.655 ± 0.051
Q45R | -0.039 ± 0.035
Q45S | -0.029 ± 0.038
Q45T | -0.038 ± 0.05
Q45V | -0.063 ± 0.039
Q45W | -0.023 ± 0.034

Variant | abundance fitness
Q45Y | -0.072 ± 0.12
E46A | -0.018 ± 0.052
E46C | -0.046 ± 0.053
E46D | -0.153 ± 0.084
E46F | -0.025 ± 0.044
E46G | -0.017 ± 0.04
E46H | -0.043 ± 0.059
E46I | -0.071 ± 0.058
E46K | -0.004 ± 0.055
E46L | 0.014 ± 0.03
E46M | 0.006 ± 0.048
E46P | -0.023 ± 0.049
E46Q | -0.012 ± 0.051
E46R | -0.014 ± 0.029
E46S | 0.015 ± 0.034
E46T | -0.053 ± 0.048
E46V | -0.031 ± 0.037
E46W | -0.035 ± 0.043
V47A | -0.215 ± 0.25
V47G | -0.623 ± 0.26
V47I | 0.065 ± 0.14
V47L | -0.332 ± 0.23
V47M | -0.702 ± 0.48
V47Q | -0.935 ± 0.36

Variant | abundance fitness
V47S | -0.866 ± 0.38
S48A | 0.003 ± 0.041
S48C | -0.047 ± 0.061
S48D | 0.004 ± 0.06
S48E | 0.027 ± 0.054
S48F | -0.008 ± 0.063
S48G | -0.005 ± 0.043
S48H | -0.023 ± 0.068
S48I | -0.028 ± 0.074
S48L | -0.035 ± 0.032
S48M | 0.026 ± 0.05
S48N | -0.099 ± 0.089
S48P | -0.847 ± 0.061
S48Q | -0.007 ± 0.052
S48T | 0.002 ± 0.047
S48V | -0.059 ± 0.041
S48W | -0.074 ± 0.066
S48Y | 0.022 ± 0.069
F49C | -0.021 ± 0.089
F49D | -1.08 ± 0.16
F49E | -0.965 ± 0.11
F49H | -0.445 ± 0.09
F49I | -0.123 ± 0.08
F49K | -1.08 ± 0.13

Variant | abundance fitness
F49L | -0.007 ± 0.029
F49M | -0.002 ± 0.044
F49N | -1.05 ± 0.21
F49P | -0.984 ± 0.079
F49Q | -0.893 ± 0.094
F49R | -0.968 ± 0.088
F49S | -0.577 ± 0.045
F49T | -0.27 ± 0.045
F49V | -0.076 ± 0.03
F49W | -0.69 ± 0.074
F49Y | -0.037 ± 0.083
E50C | -0.007 ± 0.053
E50D | 0.016 ± 0.065
E50F | -0.029 ± 0.051
E50G | -0.032 ± 0.032
E50H | -0.07 ± 0.076
E50I | -0.049 ± 0.066
E50K | -0.008 ± 0.066
E50L | -0.016 ± 0.035
E50M | -0.017 ± 0.058
E50P | -0.964 ± 0.11
E50Q | 0 ± 0.052
E50R | -0.002 ± 0.036
E50S | -0.029 ± 0.036

Variant | abundance fitness
E50T | 0.01 ± 0.06
E50V | -0.018 ± 0.036
E50W | -0.013 ± 0.043
E50Y | 0.005 ± 0.059
I51A | -0.038 ± 0.042
I51C | 0.031 ± 0.084
I51E | -0.026 ± 0.048
I51F | -0.082 ± 0.079
I51G | -0.079 ± 0.042
I51H | -0.019 ± 0.082
I51K | -0.026 ± 0.05
I51L | -0.003 ± 0.03
I51M | 0.023 ± 0.044
I51N | -0.071 ± 0.074
I51P | -0.023 ± 0.05
I51Q | 0.007 ± 0.047
I51R | -0.004 ± 0.034
I51T | -0.033 ± 0.048
I51V | 0.009 ± 0.049
I51W | -0.041 ± 0.039
I51Y | 0.037 ± 0.089
V52A | 0.029 ± 0.037
V52C | -0.014 ± 0.077
V52D | -0.092 ± 0.072

Variant | abundance fitness
V52E | -0.004 ± 0.037
V52F | -0.029 ± 0.064
V52G | -0.029 ± 0.035
V52H | -0.033 ± 0.075
V52I | -0.018 ± 0.048
V52M | 0.038 ± 0.059
V52N | -0.02 ± 0.093
V52P | -0.514 ± 0.048
V52Q | -0.001 ± 0.054
V52R | 0.009 ± 0.032
V52S | -0.018 ± 0.039
V52T | 0.012 ± 0.027
V52W | -0.053 ± 0.048
V52Y | -0.043 ± 0.092
Q53A | -0.002 ± 0.045
Q53D | 0.022 ± 0.093
Q53E | 0.003 ± 0.052
Q53H | -0.046 ± 0.08
Q53K | -0.033 ± 0.052
Q53L | -0.027 ± 0.028
Q53M | 0.01 ± 0.044
Q53N | 0.004 ± 0.071
Q53P | -0.092 ± 0.041
Q53R | -0.002 ± 0.043

Variant | abundance fitness
Q53S | -0.03 ± 0.036
Q53T | 0.018 ± 0.044
Q53V | -0.001 ± 0.04
Q53W | 0.007 ± 0.052
G54A | -0.028 ± 0.061
G54C | -0.013 ± 0.047
G54D | -0.07 ± 0.067
G54E | -0.106 ± 0.059
G54F | -0.127 ± 0.075
G54H | 0.045 ± 0.11
G54I | -0.227 ± 0.13
G54K | -0.038 ± 0.098
G54L | -0.131 ± 0.052
G54M | -0.236 ± 0.18
G54N | -0.11 ± 0.12
G54P | -0.308 ± 0.062
G54R | -0.044 ± 0.037
G54S | -0.026 ± 0.034
G54T | 0.01 ± 0.068
G54V | -0.171 ± 0.068
G54W | -0.18 ± 0.036
N55A | -0.035 ± 0.16
N55C | -0.089 ± 0.17
